In paper PMC9943660:
Positions count from the first letter of the chain named.

Experiments:
Assay in all cases: SPR
[1] = molecular target: T1, MutS D835R (Escherichia coli, UniProt P23909 1-853, D835R)
T1 sequence: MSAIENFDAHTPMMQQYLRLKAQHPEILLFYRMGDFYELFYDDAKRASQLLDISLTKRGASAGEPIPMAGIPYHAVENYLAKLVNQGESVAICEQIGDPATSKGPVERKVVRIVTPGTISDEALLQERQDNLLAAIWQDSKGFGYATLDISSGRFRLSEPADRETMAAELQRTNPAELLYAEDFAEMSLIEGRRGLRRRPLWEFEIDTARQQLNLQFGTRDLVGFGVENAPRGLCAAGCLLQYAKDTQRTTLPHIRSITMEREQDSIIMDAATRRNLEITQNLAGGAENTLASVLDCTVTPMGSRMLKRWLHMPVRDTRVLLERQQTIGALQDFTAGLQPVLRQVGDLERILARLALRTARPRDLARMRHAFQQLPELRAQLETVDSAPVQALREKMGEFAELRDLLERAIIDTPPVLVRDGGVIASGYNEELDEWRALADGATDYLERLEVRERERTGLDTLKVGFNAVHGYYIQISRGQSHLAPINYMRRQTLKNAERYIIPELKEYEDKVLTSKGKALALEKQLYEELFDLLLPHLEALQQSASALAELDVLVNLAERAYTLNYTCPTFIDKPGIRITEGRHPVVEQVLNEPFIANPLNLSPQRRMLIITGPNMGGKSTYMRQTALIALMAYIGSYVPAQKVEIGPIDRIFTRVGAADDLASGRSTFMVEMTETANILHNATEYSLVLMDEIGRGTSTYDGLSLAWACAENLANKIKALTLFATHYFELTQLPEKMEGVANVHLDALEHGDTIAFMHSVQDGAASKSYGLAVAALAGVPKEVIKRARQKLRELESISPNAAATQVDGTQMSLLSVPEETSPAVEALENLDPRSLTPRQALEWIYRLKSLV

[2] = molecular target: MSH2 WT (MutSα);MSH6 WT (MutSα) (human;human, UniProt P43246;P52701 1-934;1-1360, |)
[3] = molecular target: MSH2 dMBD2;MSH6 WT (MutSα) (human;human, UniProt P43246;P52701 125-934;1-1360, |)
[4] = molecular target: MSH2 del2-7;MSH6 WT (MutSα) (human;human, UniProt P43246;P52701 1-934;1-1360, del2-7|)
[5] = molecular target: T2, MutS WT (Escherichia coli, UniProt P23909 1-853)
T2 sequence: T1 sequence with R835D

B1: 21 bp GT mismatch (SPR) (dsDNA)
DNA 1: TTTTTTTTTTTTTTTTTTTTAGTCGCCAGGGACCAGTGTCA
DNA 2: TGACACTGGTCTCTGGCGACT
B1 gave a Kd [1] of 30.85 ± 0.08 nM, a Kd [2] of 1.08 ± 0.02 nM and a Kd [3] of 16.4 ± 0.86 nM. The Kd [4] was 3.28 ± 0.12 nM and the binding result [5] was “binds”.
